One block for each binder: values may come before it.
Tests used:
[1] = target: Myc-Vps34/PtdIns3K (Myc-tagged hVps34) (human, UniProt Q8NEB9 1-887); assay: cell-based or functional assay
[2] = target: T1, Rubicon-EGFP (full-length mouse Rubicon tagged with EGFP at the C-terminus) (mouse, UniProt Q80U62 1-956); assay: co-IP with anti-GFP antibody from co-transfected HEK 293T cells (FIG. 11)
T1 construct: also called EGFP-tagged Rubicon; GFP-tagged full-length Rubicon; not shown: EGFP tag at the C-terminus (pEGFP-N3 vector)
T1 sequence: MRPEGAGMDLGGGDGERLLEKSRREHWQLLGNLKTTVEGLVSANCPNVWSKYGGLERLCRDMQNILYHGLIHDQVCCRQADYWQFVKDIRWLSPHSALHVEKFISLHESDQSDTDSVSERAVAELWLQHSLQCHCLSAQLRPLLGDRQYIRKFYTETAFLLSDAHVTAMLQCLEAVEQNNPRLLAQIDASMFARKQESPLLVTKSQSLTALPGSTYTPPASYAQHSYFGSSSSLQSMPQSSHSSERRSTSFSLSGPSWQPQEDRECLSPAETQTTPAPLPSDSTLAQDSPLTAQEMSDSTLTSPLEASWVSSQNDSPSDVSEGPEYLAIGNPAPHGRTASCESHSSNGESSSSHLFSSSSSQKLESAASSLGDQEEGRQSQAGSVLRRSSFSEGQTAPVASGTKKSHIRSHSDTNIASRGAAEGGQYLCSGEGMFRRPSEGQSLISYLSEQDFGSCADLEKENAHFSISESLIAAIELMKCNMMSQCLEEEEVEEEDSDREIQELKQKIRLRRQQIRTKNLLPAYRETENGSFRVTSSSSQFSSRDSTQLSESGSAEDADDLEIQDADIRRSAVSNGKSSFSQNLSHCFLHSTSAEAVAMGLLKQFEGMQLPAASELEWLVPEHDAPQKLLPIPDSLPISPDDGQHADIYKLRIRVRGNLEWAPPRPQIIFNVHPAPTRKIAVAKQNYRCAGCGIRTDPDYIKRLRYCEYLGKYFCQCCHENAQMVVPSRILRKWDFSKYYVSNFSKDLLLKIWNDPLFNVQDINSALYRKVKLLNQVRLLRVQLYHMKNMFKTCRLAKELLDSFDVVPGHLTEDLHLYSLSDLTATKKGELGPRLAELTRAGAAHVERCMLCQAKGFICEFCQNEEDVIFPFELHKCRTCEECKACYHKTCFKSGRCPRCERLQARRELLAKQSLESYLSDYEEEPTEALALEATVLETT

[3] = target: T2, ATG14L-EGFP (full-length mouse ATG14L tagged with EGFP at the C-terminus) (mouse, UniProt Q8CDJ3 1-492); assay: as above
T2 construct: Mouse cDNA cloned into pEGFP-N3 and expressed in HEK 293/293T or HeLa cells; also called EGFP-tagged ATG14L; GFP-tagged full-length ATG14L; not shown: EGFP tag at the C-terminus (pEGFP-N3 vector)

[4] = target: T3, ATG14L (endogenous, mouse tissue or NIH 3T3 cells) (mouse, UniProt Q8CDJ3 1-492); assay: co-IP of endogenous proteins with anti-ATG14L antibody from NIH 3T3 cell lysates, Western blot
T3 construct: also called BISC

[5] = target: T1, Rubicon-EGFP (full-length mouse Rubicon …); assay: co-IP with anti-GFP antibody from co-transfected HEK 293T cells, anti-FLAG blot
Text: (§1) FIG. 2A-E. Mapping of the binding domains that mediate the interaction between Beclin 1 and ATG14L/Rubicon. (A) Schematic representations of Beclin 1, ATG14L and Rubicon domain structures and the construction of multiple deletion mutants. The Beclin 1 mutants were tagged with FLAG at N-termini. The ATG14L or Rubicon mutants were tagged with EGFP at C-termini. (B) and (C) Domain mapping in Beclin 1 sequence required for binding ATG14L or Rubicon. HEK 293T cells were co-transfected with FLAG-tagged Beclin 1 mutant constructs and GFP-tagged full-length ATG14L […]. The immunoprecipitation was performed with anti-GFP antibody, followed by Western blotting with anti-FLAG antibody.
(§2) DNA plasmids were transfected into HEK 293T cells for immunoprecipitation. For Co-immunoprecipitation experiments, two or three plasmids were transfected simultaneously in equal amount. Cells were lysed in immunoprecipitation lysis buffer (20 mM HEPES, pH7.4/1 mM MgCl2/0.25 mM CaCl2/0.2% Triton X-100/150 mM NaCl/protease inhibitor and PMSF-pepstatin/DNaseI). For immunoprecipitation with GFP, ATG14L or Rubicon antibody, Dynabeads M-270 E-proxy (Invitrogen, Carlsbad, Calif.) were conjugated with each antibody, and incubated with cell lysate at 4° C. for 2 hours. After the beads were washed in ATG14L or Rubicon lysis buffer for 5 times, proteins were eluted by incubating beads in elution buffer (0.5 mM EDTA, pH8/0.5N NH₃.H₂O) at room temperature for 20 minutes and dried with vacuum speed centrifuge. For FLAG-tagged protein IP, Anti-FLAG M2 affinity resin (Sigma, St Louis, Mo.) was used and the manufacture's protocol was followed.

[6] = target: T2, ATG14L-EGFP (full-length mouse ATG14L …); assay: as above
Text: as §1, §2

[7] = target: T2, ATG14L-EGFP (full-length mouse ATG14L …); assay: co-IP with anti-GFP antibody from co-transfected HEK 293T cells; anti-FLAG blot
Text: as §1
DNA plasmids were transfected into HEK 293T cells for immunoprecipitation. For Co-immunoprecipitation experiments, two or three plasmids were transfected simultaneously in equal amount. Cells were lysed in immunoprecipitation lysis buffer (20 mM HEPES, pH7.4/1 mM MgCl2/0.25 mM CaCl2/0.2% Triton X-100/150 mM NaCl/protease inhibitor and PMSF-pepstatin/DNaseI). For immunoprecipitation with GFP, ATG14L or Rubicon antibody, Dynabeads M-270 E-proxy (Invitrogen, Carlsbad, Calif.) were conjugated with each antibody, and incubated with cell lysate at 4° C. for 2 hours. […]

Chain of Myc-Vps34/PtdIns3K (Myc-tagged hVps34) (Q8NEB9 whole entry): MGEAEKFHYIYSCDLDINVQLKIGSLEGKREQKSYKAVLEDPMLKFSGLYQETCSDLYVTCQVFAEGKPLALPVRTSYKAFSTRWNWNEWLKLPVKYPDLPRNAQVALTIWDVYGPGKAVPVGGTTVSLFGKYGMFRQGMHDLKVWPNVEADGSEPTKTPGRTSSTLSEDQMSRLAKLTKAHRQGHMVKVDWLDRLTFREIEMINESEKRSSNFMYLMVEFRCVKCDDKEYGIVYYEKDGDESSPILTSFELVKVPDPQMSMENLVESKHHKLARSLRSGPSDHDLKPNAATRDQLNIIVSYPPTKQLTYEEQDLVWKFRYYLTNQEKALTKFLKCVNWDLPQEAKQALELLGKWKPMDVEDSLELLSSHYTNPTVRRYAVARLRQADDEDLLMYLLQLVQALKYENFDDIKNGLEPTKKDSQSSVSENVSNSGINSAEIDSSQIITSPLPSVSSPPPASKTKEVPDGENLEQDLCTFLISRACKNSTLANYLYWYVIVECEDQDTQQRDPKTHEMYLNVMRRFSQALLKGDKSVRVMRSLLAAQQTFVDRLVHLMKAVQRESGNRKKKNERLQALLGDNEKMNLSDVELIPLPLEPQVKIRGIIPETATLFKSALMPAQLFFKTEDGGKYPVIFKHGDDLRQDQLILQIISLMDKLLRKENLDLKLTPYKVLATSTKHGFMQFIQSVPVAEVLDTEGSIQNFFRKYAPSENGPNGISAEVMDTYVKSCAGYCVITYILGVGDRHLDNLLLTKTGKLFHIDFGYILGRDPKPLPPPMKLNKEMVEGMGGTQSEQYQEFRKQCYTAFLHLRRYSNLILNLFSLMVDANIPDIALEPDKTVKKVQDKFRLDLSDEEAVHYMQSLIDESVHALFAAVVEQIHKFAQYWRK

binding result [4]: binds
B3: endogenous Beclin 1 of NIH 3T3 cells / mouse tissue (other)
chain: MEGSKASSSTMQVSFVCQRCSQPLKLDTSFKILDRVTIQELTAPLLTTAQAKPGETQEEEANSGEEPFIETRQDGVSRRFIPPARMMSTESANSFTLIGEASDGGTMENLSRRLKVTGDLFDIMSGQTDVDHPLCEECTDTLLDQLDTQLNVTENECQNYKRCLEILEQMNEDDSEQLQRELKELALEEERLIQELEDVEKNRKVVAENLEKVQAEAERLDQEEAQYQREYSEFKRQQLELDDELKSVENQVRYAQIQLDKLKKTNVFNATFHIWHSGQFGTINNFRLGRLPSVPVEWNEINAAWGQTVLLLHALANKMGLKFQRYRLVPYGNHSYLESLTDKSKELPLYCSGGLRFFWDNKFDHAMVAFLDCVQQFKEEVEKGETRFCLPYRMDVEKGKIEDTGGSGGSYSIKTQFNSEEQWTKALKFMLTNLKWGLAWVSSQFYNK
notes: NIH 3T3 is a mouse cell line (inference)

binding result [5]: no binding
B4: FLAG-Beclin 1 BC (Bcl2-binding domain and Coiled-coil domain) (other)
chain: MEGSKASSSTMQVSFVCQRCSQPLKLDTSFKILDRVTIQELTAPLLTTAQAKPGETQEEEANSGEEPFIETRQDGVSRRFIPPARMMSTESANSFTLIGEASDGGTMENLSRRLKVTGDLFDIMSGQTDVDHPLCEECTDTLLDQLDTQLNVTENECQNYKRCLEILEQMNEDDSEQLQRELKELALEEERLIQELEDVEKNRKVVAENLEKVQAEAERLDQEEAQYQREYSEFKRQQLELDDELKSVENQVRYAQIQLDKLKKTNVFN
notes: also called FLAG-BC; not shown: FLAG tag at the N-terminus (pCMV-FLAG2 vector)

binding result [5]: no binding
binding result [6]: no binding
B5: FLAG-Beclin 1 ECD domain (aa 244-448) (other)
chain: ELKSVENQVRYAQIQLDKLKKTNVFNATFHIWHSGQFGTINNFRLGRLPSVPVEWNEINAAWGQTVLLLHALANKMGLKFQRYRLVPYGNHSYLESLTDKSKELPLYCSGGLRFFWDNKFDHAMVAFLDCVQQFKEEVEKGETRFCLPYRMDVEKGKIEDTGGSGGSYSIKTQFNSEEQWTKALKFMLTNLKWGLAWVSSQFYNK
notes: also called E (Evolutionarily conserved domain); FLAG-E; not shown: FLAG tag at the N-terminus (pCMV-FLAG2 vector)

Vps34 kinase activity (radioactive PtdIns(3)P normalized against immunoprecipitated Myc-tagged Vps34), over-expressed ATG14L against empty vector, in the presence of Beclin 1 [1]: 2.5 ratio
B8: FLAG-ATG14L (mouse ATG14L tagged with FLAG at the N-terminus) (other, not shown: small tags and cut ends)
chain: MASPSGKGSWTPEAPGFGPRALARDLVDSVDDAEGLYVAVERCPLCNTTRRRLTCAKCVQSGDFVYFDGRDRERFIDKKERLSQLKNKQEEFQKEVLKAMEGKRLTDQLRWKIMSCKMRIEQLKQTICKGNEEMKKNSEGLLKNKEKNQKLYSRAQRHQEKKEKIQRHNRKLGDLVEKKTIDLKSHYERLARLRRSHILELTSIIFPIDEVKTSGRDPADVSSETDSAMTSSMVSKLAEARRTTYLSGRWVCDDHNGDTSISITGPWISLPNNGDYSAYYNWVEEKKTTQGPDMEHNNPAYTISAALGYATQLVNIVSHILDINLPKKLCNSEFCGENLSKQKLTRAVRKLNANILYLCSSQHVNLDQLQPLHTLRNLMHLVSPRSEHLGRSGPFEVRADLEESMEFVDPGVAGESDASGDERVSDEETDLGTDWENLPSPRFCDIPSQPVEVSQSQSTQVSPPIASSSAGGMISSAAASVTSWFKAYTGHR

Second part, the binder before the results:

B1: FLAG-Rubicon (mouse Rubicon tagged with FLAG at the N-terminus) (other, not shown: small tags and cut ends)
chain: MRPEGAGMDLGGGDGERLLEKSRREHWQLLGNLKTTVEGLVSANCPNVWSKYGGLERLCRDMQNILYHGLIHDQVCCRQADYWQFVKDIRWLSPHSALHVEKFISLHESDQSDTDSVSERAVAELWLQHSLQCHCLSAQLRPLLGDRQYIRKFYTETAFLLSDAHVTAMLQCLEAVEQNNPRLLAQIDASMFARKQESPLLVTKSQSLTALPGSTYTPPASYAQHSYFGSSSSLQSMPQSSHSSERRSTSFSLSGPSWQPQEDRECLSPAETQTTPAPLPSDSTLAQDSPLTAQEMSDSTLTSPLEASWVSSQNDSPSDVSEGPEYLAIGNPAPHGRTASCESHSSNGESSSSHLFSSSSSQKLESAASSLGDQEEGRQSQAGSVLRRSSFSEGQTAPVASGTKKSHIRSHSDTNIASRGAAEGGQYLCSGEGMFRRPSEGQSLISYLSEQDFGSCADLEKENAHFSISESLIAAIELMKCNMMSQCLEEEEVEEEDSDREIQELKQKIRLRRQQIRTKNLLPAYRETENGSFRVTSSSSQFSSRDSTQLSESGSAEDADDLEIQDADIRRSAVSNGKSSFSQNLSHCFLHSTSAEAVAMGLLKQFEGMQLPAASELEWLVPEHDAPQKLLPIPDSLPISPDDGQHADIYKLRIRVRGNLEWAPPRPQIIFNVHPAPTRKIAVAKQNYRCAGCGIRTDPDYIKRLRYCEYLGKYFCQCCHENAQMVVPSRILRKWDFSKYYVSNFSKDLLLKIWNDPLFNVQDINSALYRKVKLLNQVRLLRVQLYHMKNMFKTCRLAKELLDSFDVVPGHLTEDLHLYSLSDLTATKKGELGPRLAELTRAGAAHVERCMLCQAKGFICEFCQNEEDVIFPFELHKCRTCEECKACYHKTCFKSGRCPRCERLQARRELLAKQSLESYLSDYEEEPTEALALEATVLETT
Vps34 kinase activity (radioactive PtdIns(3)P normalized against immunoprecipitated Myc-tagged Vps34), over-expressed Rubicon against empty vector, in the absence of Beclin 1 [1]: 0.58 ratio

B2: Beclin 1-AsRed (other)
chain: MEGSKASSSTMQVSFVCQRCSQPLKLDTSFKILDRVTIQELTAPLLTTAQAKPGETQEEEANSGEEPFIETRQDGVSRRFIPPARMMSTESANSFTLIGEASDGGTMENLSRRLKVTGDLFDIMSGQTDVDHPLCEECTDTLLDQLDTQLNVTENECQNYKRCLEILEQMNEDDSEQLQRELKELALEEERLIQELEDVEKNRKVVAENLEKVQAEAERLDQEEAQYQREYSEFKRQQLELDDELKSVENQVRYAQIQLDKLKKTNVFNATFHIWHSGQFGTINNFRLGRLPSVPVEWNEINAAWGQTVLLLHALANKMGLKFQRYRLVPYGNHSYLESLTDKSKELPLYCSGGLRFFWDNKFDHAMVAFLDCVQQFKEEVEKGETRFCLPYRMDVEKGKIEDTGGSGGSYSIKTQFNSEEQWTKALKFMLTNLKWGLAWVSSQFYNK
notes: Beclin 1 cDNA from mouse brain cloned into pAs-Red; not shown: AsRed fluorescent protein tag (pAs-Red vector)
binding result [2]: binds
binding result [3]: binds

B6: FLAG-Beclin 1 CCD domain (aa 144-269) (other)
chain: DQLDTQLNVTENECQNYKRCLEILEQMNEDDSEQLQRELKELALEEERLIQELEDVEKNRKVVAENLEKVQAEAERLDQEEAQYQREYSEFKRQQLELDDELKSVENQVRYAQIQLDKLKKTNVFN
notes: aa 144-269 is printed for the CCD domain of Beclin 1; also called C (Coiled-coil domain); FLAG-C; not shown: FLAG tag at the N-terminus (pCMV-FLAG2 vector)
binding result [7]: binds
binding result [5]: no binding

B7: FLAG-Beclin 1 BD domain (aa 1-150) (other)
chain: MEGSKASSSTMQVSFVCQRCSQPLKLDTSFKILDRVTIQELTAPLLTTAQAKPGETQEEEANSGEEPFIETRQDGVSRRFIPPARMMSTESANSFTLIGEASDGGTMENLSRRLKVTGDLFDIMSGQTDVDHPLCEECTDTLLDQLDTQL
notes: not shown: FLAG tag at the N-terminus (pCMV-FLAG2 vector)
binding result [5]: no binding
binding result [6]: no binding
